B1: CE115HA000 K43Q one-arm antibody (antibody, human IgG1, kappa, L234A L235A, N297A, name in Kabat numbering)
heavy: QVQLVESGGGVVQPGRSLRLSCAASGFTFSNAWMHWVRQAPGQGLEWVAQIKAKSNNYATYYAESVKGRFTISRDDSKNSLYLQMNSLKTEDTAVYYCRYVHYGAYYGVDAWGQGTTVTVSSASTKGPSVFPLAPSSKSTSGGTAALGCLVKDYFPEPVTVSWNSGALTSGVHTFPAVLQSSGLYSLSSVVTVPSSSLGTQTYICNVNHKPSNTKVDKKVEPKSCDKTHTCPPCPAPEAAGGPSVFLFPPKPKDTLMISRTPEVTCVVVDVSHEDPEVKFNWYVDGVEVHNAKTKPREEQYASTYRVVSVLTVLHQDWLNGKEYKCKVSNKALPAPIEKTISKAKGQPREPQVYTLPPSRCELTKNQVSLSCAVKGFYPSDIAVEWESNGQPENNYKTTPPVLDSDGSFFLVSKLTVDKSRWQQGNVFSCSVMHEALHNHYTQKSLSLSPDYKDDDDK
chain: EPKSSDKTHTCPPCPAPELLGGPSVFLFPPKPKDTLMISRTPEVTCVVVDVSHEDPEVKFNWYVDGVEVHNAKTKPREEQYNSTYRVVSVLTVLHQDWLNGKEYKCKVSNKALPAPIEKTISKAKGQPREPQVCTLPPSRDELTKNQVSLWCLVKGFYPSDIAVEWESNGQPENNYKTTPPVLDSDGSFFLYSKLTVDKSRWQQGNVFSCSVMHEALHNRYTQKSLSLSP
light: DIVMTQSPLSLPVTPGEPASISCRSSQSLVHSNRNTYLHWYQQKPGQAPRLLIYKVSNRFSGVPDRFSGSGSGTDFTLKISRVEAEDVGVYYCGQGTQVPYTFGQGTKLEIKRTVAAPSVFIFPPSDEQLKSGTASVVCLLNNFYPREAKVQWKVDNALQSGNSQESVTEQDSKDSTYSLSSTLTLSKADYEKHKVYACEVTHQGLSSPVTKSFNRGEC
B2: CE115HA000 K52D one-arm antibody (antibody, human IgG1, kappa, L234A L235A, N297A, name in Kabat numbering)
heavy: QVQLVESGGGVVQPGRSLRLSCAASGFTFSNAWMHWVRQAPGKGLEWVAQIDAKSNNYATYYAESVKGRFTISRDDSKNSLYLQMNSLKTEDTAVYYCRYVHYGAYYGVDAWGQGTTVTVSSASTKGPSVFPLAPSSKSTSGGTAALGCLVKDYFPEPVTVSWNSGALTSGVHTFPAVLQSSGLYSLSSVVTVPSSSLGTQTYICNVNHKPSNTKVDKKVEPKSCDKTHTCPPCPAPEAAGGPSVFLFPPKPKDTLMISRTPEVTCVVVDVSHEDPEVKFNWYVDGVEVHNAKTKPREEQYASTYRVVSVLTVLHQDWLNGKEYKCKVSNKALPAPIEKTISKAKGQPREPQVYTLPPSRCELTKNQVSLSCAVKGFYPSDIAVEWESNGQPENNYKTTPPVLDSDGSFFLVSKLTVDKSRWQQGNVFSCSVMHEALHNHYTQKSLSLSPDYKDDDDK
chain: EPKSSDKTHTCPPCPAPELLGGPSVFLFPPKPKDTLMISRTPEVTCVVVDVSHEDPEVKFNWYVDGVEVHNAKTKPREEQYNSTYRVVSVLTVLHQDWLNGKEYKCKVSNKALPAPIEKTISKAKGQPREPQVCTLPPSRDELTKNQVSLWCLVKGFYPSDIAVEWESNGQPENNYKTTPPVLDSDGSFFLYSKLTVDKSRWQQGNVFSCSVMHEALHNRYTQKSLSLSP
light: DIVMTQSPLSLPVTPGEPASISCRSSQSLVHSNRNTYLHWYQQKPGQAPRLLIYKVSNRFSGVPDRFSGSGSGTDFTLKISRVEAEDVGVYYCGQGTQVPYTFGQGTKLEIKRTVAAPSVFIFPPSDEQLKSGTASVVCLLNNFYPREAKVQWKVDNALQSGNSQESVTEQDSKDSTYSLSSTLTLSKADYEKHKVYACEVTHQGLSSPVTKSFNRGEC
B3: CE115HA000 K52E one-arm antibody (antibody, human IgG1, kappa, L234A L235A, N297A, name in Kabat numbering)
heavy: QVQLVESGGGVVQPGRSLRLSCAASGFTFSNAWMHWVRQAPGKGLEWVAQIEAKSNNYATYYAESVKGRFTISRDDSKNSLYLQMNSLKTEDTAVYYCRYVHYGAYYGVDAWGQGTTVTVSSASTKGPSVFPLAPSSKSTSGGTAALGCLVKDYFPEPVTVSWNSGALTSGVHTFPAVLQSSGLYSLSSVVTVPSSSLGTQTYICNVNHKPSNTKVDKKVEPKSCDKTHTCPPCPAPEAAGGPSVFLFPPKPKDTLMISRTPEVTCVVVDVSHEDPEVKFNWYVDGVEVHNAKTKPREEQYASTYRVVSVLTVLHQDWLNGKEYKCKVSNKALPAPIEKTISKAKGQPREPQVYTLPPSRCELTKNQVSLSCAVKGFYPSDIAVEWESNGQPENNYKTTPPVLDSDGSFFLVSKLTVDKSRWQQGNVFSCSVMHEALHNHYTQKSLSLSPDYKDDDDK
chain: EPKSSDKTHTCPPCPAPELLGGPSVFLFPPKPKDTLMISRTPEVTCVVVDVSHEDPEVKFNWYVDGVEVHNAKTKPREEQYNSTYRVVSVLTVLHQDWLNGKEYKCKVSNKALPAPIEKTISKAKGQPREPQVCTLPPSRDELTKNQVSLWCLVKGFYPSDIAVEWESNGQPENNYKTTPPVLDSDGSFFLYSKLTVDKSRWQQGNVFSCSVMHEALHNRYTQKSLSLSP
light: DIVMTQSPLSLPVTPGEPASISCRSSQSLVHSNRNTYLHWYQQKPGQAPRLLIYKVSNRFSGVPDRFSGSGSGTDFTLKISRVEAEDVGVYYCGQGTQVPYTFGQGTKLEIKRTVAAPSVFIFPPSDEQLKSGTASVVCLLNNFYPREAKVQWKVDNALQSGNSQESVTEQDSKDSTYSLSSTLTLSKADYEKHKVYACEVTHQGLSSPVTKSFNRGEC
B4: CE115HA000 K52F one-arm antibody (antibody, human IgG1, kappa, L234A L235A, N297A, name in Kabat numbering)
heavy: QVQLVESGGGVVQPGRSLRLSCAASGFTFSNAWMHWVRQAPGKGLEWVAQIFAKSNNYATYYAESVKGRFTISRDDSKNSLYLQMNSLKTEDTAVYYCRYVHYGAYYGVDAWGQGTTVTVSSASTKGPSVFPLAPSSKSTSGGTAALGCLVKDYFPEPVTVSWNSGALTSGVHTFPAVLQSSGLYSLSSVVTVPSSSLGTQTYICNVNHKPSNTKVDKKVEPKSCDKTHTCPPCPAPEAAGGPSVFLFPPKPKDTLMISRTPEVTCVVVDVSHEDPEVKFNWYVDGVEVHNAKTKPREEQYASTYRVVSVLTVLHQDWLNGKEYKCKVSNKALPAPIEKTISKAKGQPREPQVYTLPPSRCELTKNQVSLSCAVKGFYPSDIAVEWESNGQPENNYKTTPPVLDSDGSFFLVSKLTVDKSRWQQGNVFSCSVMHEALHNHYTQKSLSLSPDYKDDDDK
chain: EPKSSDKTHTCPPCPAPELLGGPSVFLFPPKPKDTLMISRTPEVTCVVVDVSHEDPEVKFNWYVDGVEVHNAKTKPREEQYNSTYRVVSVLTVLHQDWLNGKEYKCKVSNKALPAPIEKTISKAKGQPREPQVCTLPPSRDELTKNQVSLWCLVKGFYPSDIAVEWESNGQPENNYKTTPPVLDSDGSFFLYSKLTVDKSRWQQGNVFSCSVMHEALHNRYTQKSLSLSP
light: DIVMTQSPLSLPVTPGEPASISCRSSQSLVHSNRNTYLHWYQQKPGQAPRLLIYKVSNRFSGVPDRFSGSGSGTDFTLKISRVEAEDVGVYYCGQGTQVPYTFGQGTKLEIKRTVAAPSVFIFPPSDEQLKSGTASVVCLLNNFYPREAKVQWKVDNALQSGNSQESVTEQDSKDSTYSLSSTLTLSKADYEKHKVYACEVTHQGLSSPVTKSFNRGEC
B5: CE115HA000 K52H one-arm antibody (antibody, human IgG1, kappa, L234A L235A, N297A, name in Kabat numbering)
heavy: QVQLVESGGGVVQPGRSLRLSCAASGFTFSNAWMHWVRQAPGKGLEWVAQIHAKSNNYATYYAESVKGRFTISRDDSKNSLYLQMNSLKTEDTAVYYCRYVHYGAYYGVDAWGQGTTVTVSSASTKGPSVFPLAPSSKSTSGGTAALGCLVKDYFPEPVTVSWNSGALTSGVHTFPAVLQSSGLYSLSSVVTVPSSSLGTQTYICNVNHKPSNTKVDKKVEPKSCDKTHTCPPCPAPEAAGGPSVFLFPPKPKDTLMISRTPEVTCVVVDVSHEDPEVKFNWYVDGVEVHNAKTKPREEQYASTYRVVSVLTVLHQDWLNGKEYKCKVSNKALPAPIEKTISKAKGQPREPQVYTLPPSRCELTKNQVSLSCAVKGFYPSDIAVEWESNGQPENNYKTTPPVLDSDGSFFLVSKLTVDKSRWQQGNVFSCSVMHEALHNHYTQKSLSLSPDYKDDDDK
chain: EPKSSDKTHTCPPCPAPELLGGPSVFLFPPKPKDTLMISRTPEVTCVVVDVSHEDPEVKFNWYVDGVEVHNAKTKPREEQYNSTYRVVSVLTVLHQDWLNGKEYKCKVSNKALPAPIEKTISKAKGQPREPQVCTLPPSRDELTKNQVSLWCLVKGFYPSDIAVEWESNGQPENNYKTTPPVLDSDGSFFLYSKLTVDKSRWQQGNVFSCSVMHEALHNRYTQKSLSLSP
light: DIVMTQSPLSLPVTPGEPASISCRSSQSLVHSNRNTYLHWYQQKPGQAPRLLIYKVSNRFSGVPDRFSGSGSGTDFTLKISRVEAEDVGVYYCGQGTQVPYTFGQGTKLEIKRTVAAPSVFIFPPSDEQLKSGTASVVCLLNNFYPREAKVQWKVDNALQSGNSQESVTEQDSKDSTYSLSSTLTLSKADYEKHKVYACEVTHQGLSSPVTKSFNRGEC
B6: CE115HA000 K52I one-arm antibody (antibody, human IgG1, kappa, L234A L235A, N297A, name in Kabat numbering)
heavy: QVQLVESGGGVVQPGRSLRLSCAASGFTFSNAWMHWVRQAPGKGLEWVAQIIAKSNNYATYYAESVKGRFTISRDDSKNSLYLQMNSLKTEDTAVYYCRYVHYGAYYGVDAWGQGTTVTVSSASTKGPSVFPLAPSSKSTSGGTAALGCLVKDYFPEPVTVSWNSGALTSGVHTFPAVLQSSGLYSLSSVVTVPSSSLGTQTYICNVNHKPSNTKVDKKVEPKSCDKTHTCPPCPAPEAAGGPSVFLFPPKPKDTLMISRTPEVTCVVVDVSHEDPEVKFNWYVDGVEVHNAKTKPREEQYASTYRVVSVLTVLHQDWLNGKEYKCKVSNKALPAPIEKTISKAKGQPREPQVYTLPPSRCELTKNQVSLSCAVKGFYPSDIAVEWESNGQPENNYKTTPPVLDSDGSFFLVSKLTVDKSRWQQGNVFSCSVMHEALHNHYTQKSLSLSPDYKDDDDK
chain: EPKSSDKTHTCPPCPAPELLGGPSVFLFPPKPKDTLMISRTPEVTCVVVDVSHEDPEVKFNWYVDGVEVHNAKTKPREEQYNSTYRVVSVLTVLHQDWLNGKEYKCKVSNKALPAPIEKTISKAKGQPREPQVCTLPPSRDELTKNQVSLWCLVKGFYPSDIAVEWESNGQPENNYKTTPPVLDSDGSFFLYSKLTVDKSRWQQGNVFSCSVMHEALHNRYTQKSLSLSP
light: DIVMTQSPLSLPVTPGEPASISCRSSQSLVHSNRNTYLHWYQQKPGQAPRLLIYKVSNRFSGVPDRFSGSGSGTDFTLKISRVEAEDVGVYYCGQGTQVPYTFGQGTKLEIKRTVAAPSVFIFPPSDEQLKSGTASVVCLLNNFYPREAKVQWKVDNALQSGNSQESVTEQDSKDSTYSLSSTLTLSKADYEKHKVYACEVTHQGLSSPVTKSFNRGEC

Molecular target: T1, CD3ε homodimer protein (human, UniProt P07766 23-126, limits assumed, sulfo-tag or biotin label in the ECL assays; amine-coupled to the chip in SPR)
T1 construct: also called human CD3ε homodimer protein; CD3 (CD3ε)
T1 sequence (P07766 23-126 limits assumed): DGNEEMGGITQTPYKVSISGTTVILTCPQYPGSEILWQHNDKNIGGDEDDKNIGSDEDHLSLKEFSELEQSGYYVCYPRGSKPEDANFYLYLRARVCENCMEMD
Assay: SPR Biacore T200; CD3ε homodimer on CM4 chip;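 also: Single-residue variant antibodies injected as analyte over CD3ε homodimer immobilized by amine coupling, run at 25 °C in HBS-EP+ buffer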

| Binder | ratio of amounts bound Z=Y/X (altered form / CE115HA000) |
| --- | --- |
| B1 | 0.99 |
| B2 | 0.25 |
| B3 | 0.26 |
| B4 | 0.17 |
| B5 | 0.22 |
| B6 | 0.33 |
